Measured values from patent US20180208675A1 (Novo Nordisk, published 2018).

Key:
Assay in all cases: cell-based or functional assay
[1] = target: endogenous TFPI of normal human plasma (human, UniProt P10646 29-304, limits assumed)
[2] = target: T1, human TFPI alpha (full-length TFPIα) (human, UniProt P10646 29-304)
[3] = target: T1, human TFPI alpha (full-length TFPIα); remark: listed apart in the source

| lag time (min), 200 nM mAb (2 x 100 nM), FVIII-neutralised plasma + 20 nM TFPIα [3] [min] | thrombin peak (nM), 200 nM mAb (2 x 100 nM), FVIII-neutralised plasma + 20 nM TFPIα [3] [nM] | ttPeak (min), 200 nM mAb (2 x 100 nM), FVIII-neutralised plasma + 20 nM TFPIα [3] [min] | Binder | also measured |
| --- | --- | --- | --- | --- |
|  |  |  | mAb 2021 (antibody, human IgG4 S228P, kappa, V domains shown) VH: EVQLVESGGGLVKPGGSLRLSCAASGFTFSNYAMSWVRQTPEKRLEWVATISRSGSYSYFPDSVQGRFTISRDNAKNSLYLQMNSLRAEDTAVYYCARLGGYDEGDAMDSWGQGTTVTVSS VL: DIVMTQTPLSLSVTPGQPASISCKSSQSLLESDGKTYLNWYLQKPGQSPQLLIYLVSILDSGVPDRFSGSGSGTDFTLKISRVEAEDVGVYYCLQATHFPQTFGGGTKVEIKR | thrombin peak (nM) at 6.25 nM, FVIII-neutralised plasma, endogenous TFPI [1]: 113 nM; thrombin peak (nM) at 12.5 nM, FVIII-neutralised plasma, endogenous TFPI [1]: 114 nM; thrombin peak (nM) at 25.0 nM, FVIII-neutralised plasma, endogenous TFPI [1]: 116 nM; thrombin peak (nM) at 50.0 nM, FVIII-neutralised plasma, endogenous TFPI [1]: 118 nM; thrombin peak (nM) at 100 nM, FVIII-neutralised plasma, endogenous TFPI [1]: 118 nM; thrombin peak (nM) at 6.25 nM, FVIII-neutralised plasma + 2 nM TFPIα [2]: 48.9 nM; thrombin peak (nM) at 12.5 nM, FVIII-neutralised plasma + 2 nM TFPIα [2]: 61.7 nM; thrombin peak (nM) at 25.0 nM, FVIII-neutralised plasma + 2 nM TFPIα [2]: 68.4 nM; thrombin peak (nM) at 50.0 nM, FVIII-neutralised plasma + 2 nM TFPIα [2]: 73.4 nM; thrombin peak (nM) at 100 nM, FVIII-neutralised plasma + 2 nM TFPIα [2]: 58.6 nM |
| 5.8 | 20.9 | 14.6 | mAb 2F3 (antibody, V domains shown) VH: QVQLKQSGPGLVQPSQSLSITCTVSGFSLSSYGVHWVRQSPGKGLEWLGVIWRGGSTDFNAAFMSRVSFTKDNSKSQVFFKMNSLQADDTAIYYCAKNSHGNYVGYAMDYWGQGTSVTVSS VL: DIVMTQSQKFMSTTVGDKVSIPCKASENVGAAVAWYQQKPGQSPTLLIYSASNRYTGIPDRFTGSGSGTDFTLTIRTVQSEDLADYFCQQYTNYPTFGGGTKLEIKR |  |
| 5.1 | 23.7 | 13.6 | mAb 2F22 (antibody, V domains shown) VH: QVQLKQSGPGLVQPSQSLSITCTVSGFSLTNYGVHWVRQSPGKGLEWLAVIWRGGSIDYNAAFMSRLSITKDNSKSQVFFKMNSLQADDTAIYYCAKNSHGNYVGYAMDYWGQGTSVTVSS VL: GIVMTQSQKFMSTTVGDRVSITCKASQSVGPAVAWYQQKPGQSPKLLIYSASNRYTGVPDRFTGSGSGADFTLTISNLHSEDLADYFCQQYTSYPTFGGGTKLEIKR |  |
| 0 | 0 | 0 | mAb 4F110 (antibody, human IgG4 S228P, kappa, V domains shown) VH: QVQLQQSGAELVKPGASVKLSCKASGYTFISYYMYWVKQRPGQGLEWIGEINPSNGDTNLNEKFKSKATLTVDKSSSTVYMQLSSLTSEDSAVYYCTRWDRFDGFVYWGQGTLVTVSA VL: ETTVTQSPASLSMAIGGKVTIRCIISTNIDDDINWYQQKPGEPPKLLISEGNTLRPGVPSRFSSSGYGTDFVFTIENMLSEDVADYYCLQSDDLPYTFGGGTKLEIKR |  |
| 0 | 0 | 0 | mAb 2F35 (antibody, V domains shown) VH: EVQLQQSGAELVRPGALVKLSCKASGFNIKDYYIHWVKQRPEQGLEWIGWIDPENGNTIFDPKFQGRASITADTSSNTAYLQLSSLTSEDTAVYYCAGRWYAMDYWGQGTSVTVSS VL: not shown |  |
| 0 | 0 | 0 | mAb 1F91 (antibody, V domains shown) VH: DVQLQESGPGLVKPSQSLSLTCTVSGYSITSDYAWNWIRQFPGNKLEWMGYISYSGSTSYNPSLKSRISITRDTSKNQFFLQLNSVTTEDTATYYCARWAYDGPWGQGTLVTVSA VL: QIVLSQSPALLSASPGEKVTMTCRASSSVSHMHWYQQKPGSSPKPWIYATSNLASGVPARFSGSGSGTSYSLTITRVEAEDAATYYCQQWSSNPFTFGSGTKLEIKR |  |
